Assay results: PMC7920257, “Probing Protein Folding with Sequence-Reversed α-Helical Bundles” (International Journal of Molecular Sciences, 2021)
Values belong to the molecule of their own block, whether it stands above or below them.

Legend:
RM6 = RM6 (UniProt P03051); assay: SAXS; 10 °C, 1–12 mg/mL; molecular mass from I(0) of the Guinier plot against BSA; rRop from the refolding protocol
rRop = assay: SEC-MALS; 100 uL loaded (wtRop 3 mg/mL, rRop 5.5 mg/mL, rRM6 3.5 mg/mL) on Superdex 75 (wtRop, rRop) or Superdex 200 (rRM6); rRop from the non-refolding protocol
rRM6 [1] = assay: as above
rRM6 [2] = assay: SEC; Sephacryl S-200 high-resolution column, 20 °C, 0.5 mL/min, after Ni-NTA; rRop from the refolding protocol gives an asymmetric peak
rRM6 [3] = assay: SAXS; 10 °C, 1–12 mg/mL; molecular mass from I(0) of the Guinier plot against BSA; rRop from the refolding protocol
[4] = target: the molecule itself; assay: SEC-MALS; 100 uL loaded (wtRop 3 mg/mL, rRop 5.5 mg/mL, rRM6 3.5 mg/mL) on Superdex 75 (wtRop, rRop) or Superdex 200 (rRM6); rRop from the non-refolding protocol

stoichiometry N (RM6): 4
Molecule: RM6 (from UniProt P03051 1-63) (natural protein)

stoichiometry N (rRop): 2
Molecule: rRop

More lines, now with the values behind:

Molecule: rRM6
stoichiometry N (rRM6 [1]): 4 | stoichiometry N (rRM6 [2]): 4 | stoichiometry N (rRM6 [3]): 4

B1: Rop (natural protein)
chain: MTKQEKTALNMARFIRSQTLTLLEKLNELDADEQADICESLHDHADELYRSCLARFGDDGENL
notes: homodimeric 4-alpha-helical bundle; also called wtRop; wild-type Rop
stoichiometry N [4]: 2
